The nature of the data set: label from the status in PepcDB records.
For the sequence “MPNHDYRELAAVFAGGALGALARAALSALAIPDPARWPWPTFTVNVVGAFLVGYFTTRLLERLPLSSYRRPLLGTGLCGGLTTFSTMQVETISMIEHGHWGLAAAYSVVSITLGLLAVHLATVLVRRVRIRR”, the protein production result is “failed”.

For the sequence “MTEEQVQHWFDMFGSLGYIAGFLLPFIEAFIPILPIIVFIIVNVNAFGWFIGTVLAWAGTVAGSYIVFLFFRRLNNTKYMKKVQQRTSVQRLIHFIDRRGVIPIFILMCFPFTPSALVNIVASMSHIKAHAYLTVLIISKFIMIGLVGWLGNDITTLFSNPTRLITIVVVIIIVWFVGRKIEKHFMSSSEE”, the protein production entry is recorded as “failed”.

Take “MRPVYFLSDFGLEDPYVAVVKAVLAERAPGPAVVDLAHALPPQDLRRAAYALFEALPYLPEGAVVLAVVDPGVGTARRAVAALGRWTYVGPDNGLFTLAWLLDPPRRAFLLEPPRPRPKAALPGWAPGEATFHGRDVFAPAAAHLALGLPPEGLGPEVPVETLARLPLALTEGPEGEVLTFDRFGNAITTLLRAPVGGFVEVGGRRVPVRRTFGEVPEGAPVAYLGSAGLLEVAVNRGSAREALGLKEGMPVRLL”: the protein production entry is “not failed”.

Consider “MPHSRPLSRLRASLILLLVSFIWGSAFVAQKTAFDAVEGATAPALGPLAFTGARFLLGALVVLPFALRENRQARSRGAPGAGLLAIFCGIGAVLFAASFTQQLGIIGTSVTNAGFLTALYVPLVPVVALVIFRQSVRKMIWPGAAGCLAGLWLLTGAATNGLSALTAGDLWVLVGALFWAFHVTVVGVMATRSGRPLTLAAAQFLTCGVLGWAGAFAFETPTLAGMAAIAPEIAYAGILSVGVAFTLQVVAQRHTHPAAAAIILSMEMVFASLAAVVVLGERLSGVQWLGAGLILASIIAVESAAALGDRRRGAAGALTP”, for which the protein production entry is recorded as “failed”.

In the case of “MNIALARSVVGERLRLLAERMGLVAKRLQDMSQDDTPGRCTPEHCAIQVDSDDEIGDGARAFNQLIQALSLSIETETAVRTFTEMLVSELDVHQLTEQALALLLQHTGADGGAILIEVDGEIRVAASQGIGSAHTLANNDRVRSALRTERRHRVQLPEDLVVDGMLAQFRPKEVIIDPVRHKEVVLGAVVLASGQGFSAEDRNRLDVFERGLALALHNALLYDRLQTLAALDPLTGAYNRRFGMARLREEFRRAVRLNLPLGILMFDIDYFKRINDTYGHLAGDRVLSRVAKTARSVLREGDVLIRYGGEEFIAVLPAASLHDLEYVGERLRHQVDDLMLMDGDQSMHVTVSIGAAAYPDTDVEDETALVDRADKALYAAKSDGRNRLVIS”, the protein production result is reported as “failed”.

For the sequence “MATAASNHYSLLTSSASIVHAEPPGGMQQGAGGYREAQSLVQGDYGALQSNGHPLSHAHQWITALSHGGGGGGGGGGGGGGGGGGGGGDGSPWSTSPLGQPDIKPSVVVQQGGRGDELHGPGALQQQHQQQQQQQQQQQQQQQQQQQQQRPPHLVHHAANHHPGPGAWRSAAAAAHLPPSMGASNGGLLYSQPSFTVNGMLGAGGQSAGLHHHGLRDAHDEPHHADHHPHPHSHPHQQPPPPPPPQGPPGHPGAHHDPHSDEDTPTSDDLEQFAKQFKQRRIKLGFTQADVGLALGTLYGNVFSQTTICRFEALQLSFKNMCKLKPLLNKWLEEADSSSGSPTSIDKIAAQGRKRKKRTSIEVSVKGALESHFLKCPKPSAQEITSLADSLQLEKEVVRVWFCNRRQKEKRMTPPGGTLPGAEDVYGGSRDTPPHHGVQTPVQ”, the protein production entry is reported as “failed”.

Consider “MPIRRRTSGNDRKNIGPRMEVARVREPFSFGVPERRRFAMQFGYDMRPSFWQEVRSNSHLVIAAVGTAALLGVAAVALWLALPTSERQAAASQEQSIPSIPVKTMKIVPAGTTVAAATVPQPARKSDQVSPTVAVAKANIQALAANDPRWTEAQPKTASAAPDQAAAPSQAANQAEPAPNKPAVTAAFAPSATDTDAASELAKVAAPAPAAGSNPDGAKTAAIPEVQPQAPEQQPTASDDGSKARAKPPKVAAAGNGRILRPVTMRSGPKKNAAAIGTVPARTSVQVMICKQWCQIVYNGKTGWVYKSYIKTGG”, for which the protein production entry was “failed”.

For “MSGVTSEPIAMDATRFQHTPYYCEENVYLLCKTLCENGVAEATCSDLFVVFISNEKKQVPLWHQKASTRADGVVLWDYHVICVQRKKESDSEPLVWDLDSTLPFPSPLASYVTETIQPSFQLFAEYQRFFRIVHAPLFFKHFASDRRHMKEPDGSWTAQPPPYEPIVAQDGILHNLSEYIAMSGADTLSSLDPETVTAAISQKLGVVVSHTQLQDLFTKLP”, the protein production result is on record as “failed”.

For the sequence “MSLMLSHNPIVEPFALAHATIVTGDKAGTILRNMTIVVGADGRIEQVAPSIETSIPAEYHYLDGTGKIVMPGLINAHTHLFSQGKPLNPKLATPKGQRMVATFAHSPLGKPYMAATVKHNATTLLESGVTTIRTLGDVGYEVVTLRDQIDAGQILGPRILASGPLMAIPEGHGAPLIALTSGTPEEARTAVAQNLKAGVNAIKIAATGGVTDAQEIGEAGSPQMSVEQMRAICDEAHQYGVIVGAHAQSPEGVRRSLLAGVDTIEHGSVLDDELIGMFRHNPNALRGYSALIPTLSAGLPLTLLGQDVTGITDIQLENSKNVVGGMVSGARQAHEAGLMIGVGTDTGMTFVPQYATWRELELLVAYAGFSPAEALHAATAVNASILGVDAETGSLEVGKSADLLVLNANPLDDLRALEHPALVIAAGHPVWRPGPKRFADIDALLDEAYAEGHHHHHH”, the protein production result is “not failed”.

“MTDTRPAQSLGPGLQPETRSLGDEPVRLVDTTMLYAPRSGGVRRYLSSKRAWLASHRPDVRHTLVVPGARDFHDGRGQVSIYAAPLPFGAGYRWPVVKQTWMERLIRQQPDLIEAGDPYTPGLAALRAGDALGVPVVGFCHTDLGKLAALHIGDWAEKPVQKRWAAIYRQFDQAVAPSRFIAGRLIEAGVRDAIGLPLGVDTAIFHPERGDRDGLRRRLGLSPKDRLLVFAGRPAREKKLDVLVAAVERLGDPYKLLFVGAGGGAPVSDRTLCIDYVRDPVELASILASCDAFVHANDNEPFGLIVLEAMACGLPVVGVSAGGVAESVDAAVGQLAVASEATAFADAIEALFERDVTVVGEAARRRAVERHGWDAVFTELCLIYDRLTGRRAFSSASAHAGH”: the protein production result is recorded as “failed”.

In the case of “MKWEMGLQEEYIELIKAGKKKIEGRLYDEKRRQIKPGDIIIFEGGKLKVKVKGIRVYSSFKEMLEKEGIENVLPGVKSIEEGVKVYRQFYDEEREKKYGVVAIEIEPIE”, the protein production entry is “not failed”.

For “MSKVNEITRESWILSTFPEWGTWLNEEIEQTVVEPNTFSMWWLGCTGIWLKSAGNTNLSIDFWCGTGKKTQKNRLMNTQHQMMRMGGVEALQPNLRTSIFPLDPFAIKEIDAVLASHDHADHIDVNVAAAVLQNCGEHVKFIGPQACVDLWLGWGVPQERCIVAKVGDVLEIGDVKIRVLDSFDRTALVTLPKGVSSYDKAILDGMDERAVNYLIETSGGSVYHSGDSHYSNYYAKHGNDYQIDVALLSYGENPRGVTDKMTSSDVLRAAESLDCQVVVPFHHDIWANFQNDPREIEVLWNMKKDRLQYQFAPFFWQVGGKYTYPTDKGRMHYQHFRGFQDIFKNEPELPYKAFL”, the protein production result is “not failed”.

Consider “MLIWWRGKFRRADEISLDFSLFEKSLQGAVYETLRTYSRAPFAAYKHYTRLKRSADFFNLPLSLSFDEFTKVLKAGADEFKQEVRIKVYLFPDSGEVLFVFSPLNIPDLETGVEVKISNVRRIPDLSTPPALKITGRTDIVLARREIVDCYDVILLGLNGQVCEGSFSNVFLVKEGKLITPSLDSGILDGITRENVIKLAKSLEIPVEERVVWVWELFEADEMFLTHTSAGVVPVRRLNEHSFFEEEPGPVTATLMENFEPFVLNLEENWVGI”, for which the protein production entry is “not failed”.

With “NKIPTTMAFRTVTDVDNAVNGLYDLMSGSGYYGAAMFAYGDMKGDDMQSSEESGVCNTCYMFNHRPNSLNAGSLWGRPFYILREAWNILNAIAEGKIESGDEKKLNALKGETMAVIALCQFDLTRCFGYPYTKDKGASLGAPLIDHLVGTYENPPRSTVAQAYDFIIETLEEAVTLMSEEKNNGRMNKYAARALLARIYLYHDDNRKAFDLADQLIKDADTSGSYALYPHEKYVAAWSVEAKFGSESFFEIANSVDDTPGRDSWGYLLNWYGYQKGFVTQKYAEQMLADPGDVRGHLLEENKYAGKTVWWLYKLRGTDLKTAPLECNNVVLRLSEVYLIAAEAGCKLGGDAAVQGLGYLNEIVKRGNPDNEVTMADYTLDRVLDERSKELVGEGHRFFDLLRNGKTIVRKGGYHLPSVDEEVDWDFYKCVLPIPEDQFIFSPEMEQNPGYPKN”, the protein production result is listed as “not failed”.

“MNVTLGTGDGADFWVFGFGSLIWKPDIPFEECRDAFITGWRRRFWQHSTDHRGTESYPGRVATLVLAEQPGERCYGRAYRVDNEAAADVLAYLDEREKQGYSRLALPVYDARSAEQITKHALVYIAREDNPHFVRAADERQIPVLCRIIARARGPSGDNATYLFRLKESLDEIGVRDEHVDELVFGVRAELEALASACSESTPHGVAVAPTAASFDAVPASSDDLR”: the protein production entry is recorded as “failed”.

With “MVARDTTAPQVKIVNPVTGNVSGSNVPISVNASDDSGASGITYALYIDGVLKATGKGSTLGYNWNIRNVAAGAHTVQVVAKDAAGNSASSSVSVTVVKLEHHHHHH”, the protein production entry is listed as “failed”.

As for “NVGVFVLMHGDSTASSMLKTAQELLGTSIGTAMNMPLTMEVQTMYEQLRNQVITQKESLNNGILLLTDMGSLNSFGNMLFEETGIRTKAITMTSTMIVLEAIRMASVGRSLEDIYQNIQLSFESVVREQFRSSLQK”, the protein production result is recorded as “not failed”.

Regarding “DTVANASGPLMVEIVKTPGSALGISLTTTSLRNKSVITIDRIKPASVVDRSGALHPGDHILSIDGTSMEHCSLLEATKLLASISEKVRLEILPVPQSQRPLRPS”, the protein production entry is on record as “not failed”.

Regarding “MRIVGLTGGIASGKSTVSNLFKASGIPVVDADVVARDVLKKGSGGWKRVVAAFGEEILLPSGEVDRPKLGQIVFSSDSKRQLLNKLMAPYISSGIFWEILKQWASGAKVIVVDIPLLFEVKMDKWTKPIVVVWVSQETQLKRLMERDGLSEEDARNRVMAQMPLDSKRSKADVVIDNNGSLDDLHQQFEKVLIEIRRPLTWIEFWRSRQGAFSVLGSVILGLSVCKQLKIGS”, the protein production result is listed as “failed”.

Regarding “MKNIEKLEQSLTYEFKDKNLLIHALTHKSFKKSYNNERLEFLGDAVLDLVVGEYLFHKFAKDAEGDLSKLRAALVNEKSFAKIANSLNLGDFILMSVAEENNGGKEKPSILSDALEAIIGAIHLEAGFEFAKTIALRLIEKNFPQIDAKILIKDYKTKLQEITQGKIGQTPQYETVRAFGPDHLKQFEIALMLDGKELARAIAGSKKEAQQMAAKIALEKLGAL”, the protein production entry is “not failed”.

“MYTIYVPGLRDPDLCNHSLMAEILCIYSSNAFEKIRKYDNLFTYVDYGNLKESELYKKRNEEESSFLYKKRILSNNIQDKKLKFDIKKEQFNYGALLFFSLNDGEFLNYISENICGNSVEVLASNNSMTTLVCGDDKGFIRILRNNPKYDDFEIKNTQMIRDVDKECCTKLFNNKIIKIDERRRNSYQTKRKKSIDKQQDLLKKAKMENFSDH”: the protein production entry is reported as “failed”.

Turning to “MVRADEMMDICMLAGEIMLINGAETYRVEETLERMAKAGQFRNVHSFVTTTGIFLSFEEEGAGDVMQMIRVDDRMQDLNKVTLVNQVSREFVNGEIDAAEALTKLQNIAKQPMNYSPLLLHTASGVAGGAFSYLFGGNLFDTLPAFIAGFVASMAVVHLQSYLKVRFFAEFMAAFTGGAVAILLVLIGLGENVDQVIIGTLMPLVPGIPLTNAVRDLISGDLLAGVTRGAECFVTSLSIATGIALAIALLS”, the protein production result was “failed”.

The values above are taken from a protein production outcome set (Wang et al. 2014).
